Source: the supplement of paper PMC9732359
± gives the uncertainty stated by the source.

Assay: protein stability index of a GFP-peptide fusion (yeast GPS) (PSI 1-4); higher = more stable; sorted into four equal gates, so the index is relative within each strain
Conditions: doa10∆
In short: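 Tiled yeast protein peptides of 17 residues were each joined downstream of GFP, on plasmids that also express Cherry. The pooled library was maintained in yeast, and mid-log cultures in leucine-free medium were sorted into four equal gates on the GFP/Cherry ratio. Plasmids from every gate were amplified by PCR and sequenced on Illumina, with barcodes linking reads to strains. The protein stability index of a peptide is its gate-number-weighted read frequency summed over the gates.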

Row | Sequence | protein stability index
1 | NDTISEDILQGIFNLLN [NUT1] | 2.38 ± 0.066
2 | NEAGRKLSDIFLSKPSK [SNF2] | 2.94 ± 0.08
3 | NEAPPKTSLADWQKEDG [YMR153W/NUP53] | 2.74 ± 0.13
4 | NEDENIQLIKILNSHFD [YJL041W/NSP1] | 2.77 ± 0.052
5 | NEENDLDVDPAKRIRVS [RPB2] | 3.01 ± 0.07
6 | NEKEQLSFINPKTGKVE [SEC65] | 2.98 ± 0.11
7 | NELQEERLKVPILVTLV [POP6] | 1.67 ± 0.034
8 | NEMLLKRVTKVKRLLFT [MTW1] | 1.26 ± 0.054
9 | NEQEEKSEEVKAEDDTG [RPC37] | 3.2 ± 0.17
10 | NEVCLEKENRFEIVDRE [SMC4] | 2.62 ± 0.089
11 | NEVYSAYVVNDTAPKPN [DLS1] | 3.47 ± 0.12
12 | NFLETIASTEKPENKTD [SIR4] | 2.94 ± 0.1
13 | NFLLPDIFGDSELFDEW [ISW2] | 2.25 ± 0.059
14 | NFNASLQLTTNTEQGDS [SNM1] | 2.02 ± 0.039
15 | NGDKKVDIYSLPLISTD [YMR129W/POM152] | 2.88 ± 0.076
16 | NGGDKELEMIGGTNEDD [YCS4] | 3.25 ± 0.22
17 | NGGNNTQQPGTNSHYNN [SNF2] | 3.05 ± 0.058
18 | NGKDSEIMYTGVSISVS [SMC3] | 3.29 ± 0.22
19 | NGNWEVGVHIADVTHFV [DIS3] | 2.55 ± 0.052
20 | NGQEQQGPVKNTQLHGP [RGR1] | 3.02 ± 0.077
21 | NGSEKVLIAQERSAGNI [RPB2] | 3.1 ± 0.17
22 | NGTMINEVIDKLKNENT [PCI8] | 2.84 ± 0.056
23 | NGVIIAADNLGSYGSLL [PRE4] | 3.05 ± 0.13
24 | NGVVIATEKKSSSPLAM [PRE8] | 2.91 ± 0.19
25 | NHASMDVYNRELDEHTT [BRR2] | 3.27 ± 0.068

Row | Sequence | protein stability index
26 | NHNGSALLIEVFTALLR [ITC1] | 1.68 ± 0.074
27 | NIALVSKLRNNIRSQLL [SRP54] | 2.13 ± 0.069
28 | NIELHSLYTSREPRVVS [PUP1] | 2.56 ± 0.1
29 | NIKSNDFSIRKTCAKSV [ECM29] | 2.55 ± 0.087
30 | NILALNLVSLLIIVTRK [YML031W/NDC1] | 1.92 ± 0.072
31 | NILTTHLSHPGTNKDMI [ECM29] | 2.61 ± 0.073
32 | NINFASGVKNDILQSLS [CDC53] | 2.11 ± 0.066
33 | NIPRRELKINLPLTEHK [SRB4] | 2.93 ± 0.094
34 | NIVKQNEGIDLDTYRER [SMC2] | 3.13 ± 0.13
35 | NKANIQALIHGLNRHYY [RPN11] | 2.12 ± 0.082
36 | NKDASLALQRGATVFVN [DPB4] | 2.61 ± 0.099
37 | NKDLSELVIRLEKDAAD [YIL149C/MLP2] | 3.05 ± 0.078
38 | NKELPINHTILGKLQDV [RPN8] | 2.62 ± 0.051
39 | NKENDNVPSTKFNAAPE [SNF12] | 3.38 ± 0.055
40 | NKEYTLVHGIFGAKMSR [SIN4] | 2.75 ± 0.12
41 | NKKIGKRPPEIMSTEAH [SIR4] | 3.09 ± 0.12
42 | NKKSEQALDISKKGKPT [SRP72] | 3.1 ± 0.1
43 | NKLDEYHGLYTNYEMSY [LIN1] | 1.56 ± 0.065
44 | NKLMEKDFQVNKEIKPY [SIR4] | 3.35 ± 0.059
45 | NKLRQQAIAKNNPQVVN [SNF5] | 1.54 ± 0.035
46 | NKNGENKKIGKRPPEIM [SIR4] | 3.09 ± 0.12
47 | NKNLPFVWLSSEENIGS [SWI1] | 2.9 ± 0.067
48 | NKTLTLDLKECYQFAEY [ARP7] | 1.96 ± 0.089
49 | NKTVNEAAKPSLSFGSG [YJL041W/NSP1] | 3.5 ± 0.13
50 | NLATKGMVKLNEYPVAD [REC8] | 2.85 ± 0.071

Row | Sequence | protein stability index
51 | NLEFNYTKPYPNFEASF [SMC2] | 2.76 ± 0.09
52 | NLEKNYLAKLSKQLSLE [IRR1] | 3.19 ± 0.14
53 | NLEQINEDLEDGHYIEE [REC8] | 2.93 ± 0.088
54 | NLIGVITHQGANSESGH [UBP6] | 2.33 ± 0.12
55 | NLLKVSVDICNNSKSRY [ECM29] | 2.04 ± 0.07
56 | NLLLSASRDKTLISWKL [ASC1] | 2.59 ± 0.071
57 | NLLQISAAELERLDKDK [SNF5] | 2.5 ± 0.12
58 | NLLTPQPTNFTTKRLWS [MCD1] | 2.79 ± 0.074
59 | NLNAFVDFSKYNTNFNL [SRP72] | 3.19 ± 0.12
60 | NLQTFTHEQWSNIQRNV [SRP72] | 2.86 ± 0.065
61 | NLRRHSDIVLDKKVTLI [SIN4] | 2.47 ± 0.05
62 | NLSSNVNFTEIGGLIPQ [YCS4] | 2.77 ± 0.071
63 | NMGSLLGLCLVIQIVTG [COB] | 2.67 ± 0.06
64 | NMKVTILHGSKSQEQRE [PRP28] | 3.42 ± 0.093
65 | NMMNQVGEEETSQKMKK [SRP54] | 3.33 ± 0.11
66 | NMNLNPQMFLNQQAQAR [GAL11] | 1.92 ± 0.035
67 | NNFRESDIIILKGEIED [SIR4] | 3.05 ± 0.18
68 | NNIVSVLTAGVNSVAIK [RPN11] | 2.28 ± 0.075
69 | NNNINENELFNDRKQTT [SSN2] | 2.71 ± 0.12
70 | NNNNAPIIIYGTENTER [YOR098C/NUP1] | 2.62 ± 0.054
71 | NNNNNNNNNNNNDDNGN [MED2] | 3.09 ± 0.038
72 | NNSNSNNNSSNEKEQLS [SEC65] | 2.77 ± 0.041
73 | NNVNEYSYTTIVLSDQT [YJL039C/NUP192] | 3.11 ± 0.059
74 | NNYDDFMLSDDEGMESI [RRI2] | 2.54 ± 0.26
75 | NNYPNVELTYSLNNSDS [BRR2] | 2.99 ± 0.14

Row | Sequence | protein stability index
76 | NPHDTLNRIKKYLLTQR [PRP8] | 2.22 ± 0.095
77 | NPLMYSGGNNTATIINN [PCI8] | 2.93 ± 0.064
78 | NQFKRIDTLLYLMTYPQ [RET1] | 1.4 ± 0.1
79 | NQILQTEIENYLLENNQ [YDL116W/NUP84] | 1.88 ± 0.052
80 | NQNFSLTFQPQQQTNAL [GRR1] | 2.95 ± 0.065
81 | NQQAQARQQVAQQLRNQ [GAL11] | 2.49 ± 0.065
82 | NQSTIYEDEELSRAEYD [LIN1] | 3.12 ± 0.086
83 | NRAARDRRAQRVAEKRD [RPL19A] | 2.94 ± 0.12
84 | NRIIKADDHASVQINVA [RPS21A] | 2.89 ± 0.055
85 | NRKRIVTLRKSLYTNTS [RPL3] | 2.66 ± 0.069
86 | NRLEIKYHNDLIEKEIQ [SMC1] | 2.35 ± 0.18
87 | NRLEKEQSVKTQNSRHY [LIN1] | 2.44 ± 0.13
88 | NRLSNPQKNLLLKGPAS [YOR098C/NUP1] | 2.96 ± 0.049
89 | NRPDNKNAQYHLLVKQG [RPN7] | 2.86 ± 0.056
90 | NRQICLVQKTVQESGNI [GRR1] | 3.44 ± 0.16
91 | NRSAKNSKNDSANVELF [YCS4] | 3.09 ± 0.093
92 | NRVPDGFQDRSLPHFPK [RPO31] | 3.29 ± 0.16
93 | NRYAFSQPTNSTTTSLH [SMC4] | 2.44 ± 0.079
94 | NSGNSNSNSNQQSTDAD [RPT1] | 2.59 ± 0.081
95 | NSINKTTVPFKESDDPS [POP1] | 2.5 ± 0.067
96 | NSIRAREVENSVSLLNS [SMC1] | 2.55 ± 0.064
97 | NSMEYTGKITKMFQDIR [CDC53] | 3.06 ± 0.27
98 | NSNQQQNPKLFQTIFSK [SIN4] | 1.98 ± 0.093
99 | NSNTNLNSLSPQAILAK [SWI1] | 2.28 ± 0.046
100 | NSQVFGVARIYASFNDT [RPS14B] | 2.54 ± 0.08

Same assay, conditions: pdr5∆

Row | Sequence | protein stability index
101 | NDTISEDILQGIFNLLN [NUT1] | 2.32 ± 0.057
